Measured values taken from publication PMC7877763.
pKd: −log10 of the molar value.

Experiments:
[1] = molecular target: GPR-foldon (foldon stabilized collagen model peptide containing a (GPP)5GPR(GPP)6 collagen sequence); assay: ELISA; ELISA-like binding assay; type I collagen from rat tail coated at 10 ug/mL on MaxiSorp plates (coating of GPR-foldon not described); His-tagged HSP47 at 1.2 to 5,000 nM in solution; detected with HRP-coupled anti-His antibody; four-parameter logistic fit
[2] = molecular target: GPR-foldon (foldon stabilized collagen model peptide containing a (GPP)5GPR(GPP)6 collagen sequence); assay: BLI; biotinylated GPR-foldon immobilised on streptavidin biosensors, blocked with 10 uM biocytin; HSP47 in solution; 50 mM Tris, 150 mM NaCl, pH 7.5 (TBS); kon and koff fitted with a 1:1 Langmuir model, KD = koff/kon

recombinant canine HSP47-R222S (from UniProt C7C419 36-418) (natural protein)
pKd [1]: 5.82
pKd [2]: 4.94

recombinant wild-type canine HSP47 (from UniProt C7C419 36-418) (natural protein)
pKd [1]: 7.25
pKd [2]: 6.39
